The record followed here is US6897197 (ALBERT EINSTEIN COLLEGE OF MEDICINE OF YESHIVA UNIVERSITY, dated 2005).

The target of test [1] is T1, human MDM2, full length (CMV driven expression construct pCHDM1A) (human, UniProt Q00987 1-491).
T1 construct: Expressed in transfected cells; also called HDM-2
Description: low stringency co-immunoprecipitation (anti-FLAG IP, anti-MDM2 Western blot), 293T cells transfected with MDM2 and p19FLAG. The procedure:
(§1) For immunoprecipitations, subconfluent 293T cells were transfected with 3 µg each of the appropriate expression constructs shown in FIG. 3, and 80 µg of Lipofectamine reagent (Gibco BRL). […] Untransfected 3T3-DM cells were lysed in a low stringency buffer as above.
For orientation: A western blot detects proteins with antibodies after separation by electrophoresis.

The target in test [2] is T2, endogenous MDM2 of untransfected 3T3DM cells (UniProt P23804 1-489).
T2 construct: 3T3DM is a mouse cell line; Detected with antibody 2A10; also called p90/p85
T2 sequence (P23804 whole entry): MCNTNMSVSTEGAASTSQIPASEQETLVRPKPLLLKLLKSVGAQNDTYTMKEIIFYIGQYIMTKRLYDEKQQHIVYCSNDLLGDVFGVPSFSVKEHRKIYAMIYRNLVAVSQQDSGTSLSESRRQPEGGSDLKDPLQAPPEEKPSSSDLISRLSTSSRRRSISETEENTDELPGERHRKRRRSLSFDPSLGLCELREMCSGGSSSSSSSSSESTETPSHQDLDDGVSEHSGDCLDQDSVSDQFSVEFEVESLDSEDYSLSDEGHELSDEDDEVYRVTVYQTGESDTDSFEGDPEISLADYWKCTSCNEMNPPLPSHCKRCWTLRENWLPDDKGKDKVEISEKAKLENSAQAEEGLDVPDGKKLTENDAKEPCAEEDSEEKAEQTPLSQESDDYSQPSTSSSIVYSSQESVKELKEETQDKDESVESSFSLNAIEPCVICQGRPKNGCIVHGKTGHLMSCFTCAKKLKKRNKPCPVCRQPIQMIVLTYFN
Description: anti-p19^ARF immunoprecipitation, anti-MDM2 Western blot, untransfected 3T3DM cells. As for the experimental part:
as §1

T1 sequence (Q00987 whole entry): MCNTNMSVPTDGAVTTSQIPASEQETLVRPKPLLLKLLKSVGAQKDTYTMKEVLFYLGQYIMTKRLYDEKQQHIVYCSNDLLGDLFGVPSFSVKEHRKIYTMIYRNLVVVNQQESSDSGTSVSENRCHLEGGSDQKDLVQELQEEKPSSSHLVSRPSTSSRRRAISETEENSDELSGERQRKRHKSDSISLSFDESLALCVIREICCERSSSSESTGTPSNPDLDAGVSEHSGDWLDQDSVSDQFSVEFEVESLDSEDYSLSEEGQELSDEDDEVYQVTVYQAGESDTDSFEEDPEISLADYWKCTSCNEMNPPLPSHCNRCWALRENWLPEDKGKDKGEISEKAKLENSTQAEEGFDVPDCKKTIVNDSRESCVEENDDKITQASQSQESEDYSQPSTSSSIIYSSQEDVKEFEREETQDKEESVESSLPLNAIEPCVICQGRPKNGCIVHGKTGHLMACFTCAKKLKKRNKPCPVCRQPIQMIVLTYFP

B1: FLAG epitope-tagged p19^ARF protein (other, mouse, UniProt Q64364 1-169, looked up, not shown: small tags and cut ends)
chain: MGRRFLVTVRIQRAGRPLQERVFLVKFVRSRRPRTASCALAFVNMLLRLERILRRGPHRNPGPGDDDGQRSRSSSSAQLRCRFELRGPHYLLPPGARRSAGRLPGHAGGAARVRGSAGCARCLGSPAARLGPRAGTSRHRAIFAFRWVLFVFRWVVFVYRWERRPDRRA
notes: Expressed from pcDNA in transfected 293T, SAOS2 or HeLa cells; also called p19^FLAG; p19FLAG
As for B1, the binding result in test [1] is on record as “binds”.

B2: endogenous p19^ARF of untransfected 3T3DM cells (other, UniProt Q64364 1-169, looked up)
chain: MGRRFLVTVRIQRAGRPLQERVFLVKFVRSRRPRTASCALAFVNMLLRLERILRRGPHRNPGPGDDDGQRSRSSSSAQLRCRFELRGPHYLLPPGARRSAGRLPGHAGGAARVRGSAGCARCLGSPAARLGPRAGTSRHRAIFAFRWVLFVFRWVVFVYRWERRPDRRA
notes: Immunoprecipitated with rabbit polyclonal anti-p19^ARF antiserum
Turning to B2, in test [2], the binding result is reported as “binds”.
